Experiments:
[1] = target: PKC1 tagged at its COOH-terminus with the HA epitope (PKC1^HA) (UniProt P24583)
[2] = target: 1,3-β-glucan synthase (GS) complex (UniProt P38631)
Chain of 1,3-β-glucan synthase (GS) complex (P38631 whole entry, looked up, one chain of several): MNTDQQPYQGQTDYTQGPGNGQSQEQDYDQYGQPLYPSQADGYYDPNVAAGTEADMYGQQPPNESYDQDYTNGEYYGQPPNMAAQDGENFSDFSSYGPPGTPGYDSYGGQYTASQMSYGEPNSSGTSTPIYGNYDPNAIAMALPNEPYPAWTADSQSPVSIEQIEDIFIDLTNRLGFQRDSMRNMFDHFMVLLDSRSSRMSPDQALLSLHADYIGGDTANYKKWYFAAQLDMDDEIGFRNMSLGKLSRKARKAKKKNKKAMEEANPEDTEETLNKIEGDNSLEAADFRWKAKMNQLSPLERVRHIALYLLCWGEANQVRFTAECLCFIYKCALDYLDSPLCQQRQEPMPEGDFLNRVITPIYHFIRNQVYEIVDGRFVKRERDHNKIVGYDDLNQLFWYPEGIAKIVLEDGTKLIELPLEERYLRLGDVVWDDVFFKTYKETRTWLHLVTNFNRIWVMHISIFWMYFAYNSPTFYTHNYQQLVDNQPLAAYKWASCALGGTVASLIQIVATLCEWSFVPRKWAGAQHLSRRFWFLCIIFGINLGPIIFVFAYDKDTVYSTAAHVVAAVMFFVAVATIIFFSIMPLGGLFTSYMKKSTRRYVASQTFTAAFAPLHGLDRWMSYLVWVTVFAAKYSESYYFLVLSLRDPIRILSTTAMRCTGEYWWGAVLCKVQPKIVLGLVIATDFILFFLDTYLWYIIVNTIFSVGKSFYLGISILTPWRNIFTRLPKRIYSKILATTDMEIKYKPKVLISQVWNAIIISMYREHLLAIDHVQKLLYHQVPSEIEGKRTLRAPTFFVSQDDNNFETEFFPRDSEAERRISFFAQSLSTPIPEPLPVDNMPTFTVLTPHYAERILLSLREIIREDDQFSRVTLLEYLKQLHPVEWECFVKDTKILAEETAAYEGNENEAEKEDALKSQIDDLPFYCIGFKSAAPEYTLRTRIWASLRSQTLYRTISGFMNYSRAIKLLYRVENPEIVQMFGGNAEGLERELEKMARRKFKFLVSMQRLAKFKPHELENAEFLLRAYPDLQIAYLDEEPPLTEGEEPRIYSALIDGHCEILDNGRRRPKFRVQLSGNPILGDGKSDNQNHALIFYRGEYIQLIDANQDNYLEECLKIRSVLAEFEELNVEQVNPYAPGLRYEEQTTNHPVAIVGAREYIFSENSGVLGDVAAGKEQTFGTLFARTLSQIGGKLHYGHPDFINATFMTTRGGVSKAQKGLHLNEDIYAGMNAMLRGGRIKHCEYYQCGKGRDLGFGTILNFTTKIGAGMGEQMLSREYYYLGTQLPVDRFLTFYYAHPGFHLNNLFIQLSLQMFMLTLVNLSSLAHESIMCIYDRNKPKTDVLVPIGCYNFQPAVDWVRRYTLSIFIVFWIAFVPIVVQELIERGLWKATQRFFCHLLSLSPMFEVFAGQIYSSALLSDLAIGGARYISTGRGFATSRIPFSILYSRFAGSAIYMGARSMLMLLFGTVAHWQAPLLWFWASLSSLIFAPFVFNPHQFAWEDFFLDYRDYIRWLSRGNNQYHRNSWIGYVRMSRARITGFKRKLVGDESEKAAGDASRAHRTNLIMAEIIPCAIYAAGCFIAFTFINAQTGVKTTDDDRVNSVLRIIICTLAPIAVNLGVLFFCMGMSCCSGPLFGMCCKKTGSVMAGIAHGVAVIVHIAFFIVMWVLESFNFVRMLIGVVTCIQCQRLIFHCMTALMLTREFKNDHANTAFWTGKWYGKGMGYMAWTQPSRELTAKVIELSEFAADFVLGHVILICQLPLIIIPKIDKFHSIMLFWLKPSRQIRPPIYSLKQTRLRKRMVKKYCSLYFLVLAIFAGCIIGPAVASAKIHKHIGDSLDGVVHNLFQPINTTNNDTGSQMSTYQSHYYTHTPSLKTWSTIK

Chain of PKC1 tagged at its COOH-terminus with the HA epitope (PKC1^HA) (P24583 whole entry): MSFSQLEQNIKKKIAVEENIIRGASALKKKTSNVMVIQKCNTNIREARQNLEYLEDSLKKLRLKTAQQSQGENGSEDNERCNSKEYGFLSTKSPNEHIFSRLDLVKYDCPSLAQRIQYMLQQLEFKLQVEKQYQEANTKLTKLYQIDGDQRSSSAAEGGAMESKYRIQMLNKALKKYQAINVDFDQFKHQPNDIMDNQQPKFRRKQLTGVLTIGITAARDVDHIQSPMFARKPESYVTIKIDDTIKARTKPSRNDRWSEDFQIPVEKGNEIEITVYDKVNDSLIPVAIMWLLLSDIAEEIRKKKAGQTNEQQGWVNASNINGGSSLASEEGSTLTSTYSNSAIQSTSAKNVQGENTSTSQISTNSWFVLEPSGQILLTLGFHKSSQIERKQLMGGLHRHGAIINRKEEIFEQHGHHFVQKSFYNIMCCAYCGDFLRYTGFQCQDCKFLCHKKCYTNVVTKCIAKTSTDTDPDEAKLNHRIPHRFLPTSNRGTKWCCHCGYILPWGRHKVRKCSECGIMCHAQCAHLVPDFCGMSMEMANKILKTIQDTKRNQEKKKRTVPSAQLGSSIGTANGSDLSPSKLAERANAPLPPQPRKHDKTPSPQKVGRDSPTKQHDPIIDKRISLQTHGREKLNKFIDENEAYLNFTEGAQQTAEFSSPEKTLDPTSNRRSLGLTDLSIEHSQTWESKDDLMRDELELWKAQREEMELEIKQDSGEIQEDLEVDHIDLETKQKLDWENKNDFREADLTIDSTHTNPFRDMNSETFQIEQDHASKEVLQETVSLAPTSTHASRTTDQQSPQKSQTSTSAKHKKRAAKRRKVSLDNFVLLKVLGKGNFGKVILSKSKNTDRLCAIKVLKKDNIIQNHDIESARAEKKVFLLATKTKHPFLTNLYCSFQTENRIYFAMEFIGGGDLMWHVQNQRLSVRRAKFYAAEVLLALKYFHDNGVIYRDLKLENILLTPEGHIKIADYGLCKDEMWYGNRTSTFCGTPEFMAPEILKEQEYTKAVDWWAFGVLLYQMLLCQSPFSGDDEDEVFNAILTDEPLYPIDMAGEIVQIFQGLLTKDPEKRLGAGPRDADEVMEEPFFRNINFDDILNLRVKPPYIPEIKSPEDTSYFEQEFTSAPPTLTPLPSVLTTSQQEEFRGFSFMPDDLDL

Row | Substance | Phosphorylation of synthetic Bck1 peptide by PKC1^HA [1] | GS activity in the membrane fraction of the cal1-1 mutant [2]
1 | Recombinant GST-Cdc42 | GST-Cdc42 did not confer cofactor-dependent stimulation on PKC1 | 
2 | Recombinant mutant Rho1 (G19V), constitutively active GST-Rho1 |  | GS activity was restored by the addition of constitutively activated Rho1
